*1 amine or outer side, *2 acyl side, *3 side chain or, on linkers, in order; H or OH if unused. Where no end group is shown, it is not given here. Side-chain parts run from the residue outwards. The star is where a group is joined. Succinyl(4-O-cholesteryl) = CC(C)CCC[C@@H](C)[C@H]1CC[C@H]2[C@@H]3CC=C4C[C@@H](OC(=O)CCC(=O)*)CC[C@]4(C)[C@H]3CC[C@]12C; Suc = O=C(CCC(=O)[*:2])[*:1]
B1: Compound 37 (peptide)
peptide: Ac-FDELVNKKIEKIEEVNKKSLKLLESEAAAKK(Succinyl(4-O-cholesteryl))-NH2
SMILES: CC[C@H](C)[C@H](NC(=O)[C@H](CCCCN)NC(=O)[C@H](CCCCN)NC(=O)[C@H](CC(N)=O)NC(=O)[C@@H](NC(=O)[C@H](CC(C)C)NC(=O)[C@H](CCC(=O)O)NC(=O)[C@H](CC(=O)O)NC(=O)[C@H](Cc1ccccc1)NC(C)=O)C(C)C)C(=O)N[C@@H](CCC(=O)O)C(=O)N[C@@H](CCCCN)C(=O)N[C@H](C(=O)N[C@@H](CCC(=O)O)C(=O)N[C@@H](CCC(=O)O)C(=O)N[C@H](C(=O)N[C@@H](CC(N)=O)C(=O)N[C@@H](CCCCN)C(=O)N[C@@H](CCCCN)C(=O)N[C@@H](CO)C(=O)N[C@@H](CC(C)C)C(=O)N[C@@H](CCCCN)C(=O)N[C@@H](CC(C)C)C(=O)N[C@@H](CC(C)C)C(=O)N[C@@H](CCC(=O)O)C(=O)N[C@@H](CO)C(=O)N[C@@H](CCC(=O)O)C(=O)N[C@@H](C)C(=O)N[C@@H](C)C(=O)N[C@@H](C)C(=O)N[C@@H](CCCCN)C(=O)N[C@@H](CCCCNC(=O)CCC(=O)O[C@H]1CC[C@@]2(C)C(=CC[C@H]3[C@@H]4CC[C@H]([C@H](C)CCCC(C)C)[C@@]4(C)CC[C@@H]32)C1)C(N)=O)C(C)C)[C@@H](C)CC
B2: Compound 39 (peptide)
peptide: Ac-WDEFDASISQNEKINQSLEEIRKSDELLHNNALEAAAKK(Succinyl(4-O-cholesteryl))-NH2
SMILES: CC[C@H](C)[C@H](NC(=O)[C@H](CO)NC(=O)[C@H](C)NC(=O)[C@H](CC(=O)O)NC(=O)[C@H](Cc1ccccc1)NC(=O)[C@H](CCC(=O)O)NC(=O)[C@H](CC(=O)O)NC(=O)[C@H](Cc1c[nH]c2ccccc12)NC(C)=O)C(=O)N[C@@H](CO)C(=O)N[C@@H](CCC(N)=O)C(=O)N[C@@H](CC(N)=O)C(=O)N[C@@H](CCC(=O)O)C(=O)N[C@@H](CCCCN)C(=O)N[C@H](C(=O)N[C@@H](CC(N)=O)C(=O)N[C@@H](CCC(N)=O)C(=O)N[C@@H](CO)C(=O)N[C@@H](CC(C)C)C(=O)N[C@@H](CCC(=O)O)C(=O)N[C@@H](CCC(=O)O)C(=O)N[C@H](C(=O)N[C@@H](CCCNC(=N)N)C(=O)N[C@@H](CCCCN)C(=O)N[C@@H](CO)C(=O)N[C@@H](CC(=O)O)C(=O)N[C@@H](CCC(=O)O)C(=O)N[C@@H](CC(C)C)C(=O)N[C@@H](CC(C)C)C(=O)N[C@@H](Cc1c[nH]cn1)C(=O)N[C@@H](CC(N)=O)C(=O)N[C@@H](CC(N)=O)C(=O)N[C@@H](C)C(=O)N[C@@H](CC(C)C)C(=O)N[C@@H](CCC(=O)O)C(=O)N[C@@H](C)C(=O)N[C@@H](C)C(=O)N[C@@H](C)C(=O)N[C@@H](CCCCN)C(=O)N[C@@H](CCCCNC(=O)CCC(=O)O[C@H]1CC[C@@]2(C)C(=CC[C@H]3[C@@H]4CC[C@H]([C@H](C)CCCC(C)C)[C@@]4(C)CC[C@@H]32)C1)C(N)=O)[C@@H](C)CC)[C@@H](C)CC
B3: Compound 44 (peptide)
peptide: Ac-WDEFDKKIEEVNKKIEESLKKIEESDKKLHNVEAAAKK(Succinyl(4-O-cholesteryl))-NH2
SMILES: CC[C@H](C)[C@H](NC(=O)[C@H](CCCCN)NC(=O)[C@H](CCCCN)NC(=O)[C@H](CC(C)C)NC(=O)[C@H](CO)NC(=O)[C@H](CCC(=O)O)NC(=O)[C@H](CCC(=O)O)NC(=O)[C@@H](NC(=O)[C@H](CCCCN)NC(=O)[C@H](CCCCN)NC(=O)[C@H](CC(N)=O)NC(=O)[C@@H](NC(=O)[C@H](CCC(=O)O)NC(=O)[C@H](CCC(=O)O)NC(=O)[C@@H](NC(=O)[C@H](CCCCN)NC(=O)[C@H](CCCCN)NC(=O)[C@H](CC(=O)O)NC(=O)[C@H](Cc1ccccc1)NC(=O)[C@H](CCC(=O)O)NC(=O)[C@H](CC(=O)O)NC(=O)[C@H](Cc1c[nH]c2ccccc12)NC(C)=O)[C@@H](C)CC)C(C)C)[C@@H](C)CC)C(=O)N[C@@H](CCC(=O)O)C(=O)N[C@@H](CCC(=O)O)C(=O)N[C@@H](CO)C(=O)N[C@@H](CC(=O)O)C(=O)N[C@@H](CCCCN)C(=O)N[C@@H](CCCCN)C(=O)N[C@@H](CC(C)C)C(=O)N[C@@H](Cc1c[nH]cn1)C(=O)N[C@@H](CC(N)=O)C(=O)N[C@H](C(=O)N[C@@H](CCC(=O)O)C(=O)N[C@@H](C)C(=O)N[C@@H](C)C(=O)N[C@@H](C)C(=O)N[C@@H](CCCCN)C(=O)N[C@@H](CCCCNC(=O)CCC(=O)O[C@H]1CC[C@@]2(C)C(=CC[C@H]3[C@@H]4CC[C@H]([C@H](C)CCCC(C)C)[C@@]4(C)CC[C@@H]32)C1)C(N)=O)C(C)C

Target: F protein of RSV A long virus strain (Respiratory Syncytial Virus (RSV) A …, UniProt P12568 26-574)
Sequence (P12568 26-574): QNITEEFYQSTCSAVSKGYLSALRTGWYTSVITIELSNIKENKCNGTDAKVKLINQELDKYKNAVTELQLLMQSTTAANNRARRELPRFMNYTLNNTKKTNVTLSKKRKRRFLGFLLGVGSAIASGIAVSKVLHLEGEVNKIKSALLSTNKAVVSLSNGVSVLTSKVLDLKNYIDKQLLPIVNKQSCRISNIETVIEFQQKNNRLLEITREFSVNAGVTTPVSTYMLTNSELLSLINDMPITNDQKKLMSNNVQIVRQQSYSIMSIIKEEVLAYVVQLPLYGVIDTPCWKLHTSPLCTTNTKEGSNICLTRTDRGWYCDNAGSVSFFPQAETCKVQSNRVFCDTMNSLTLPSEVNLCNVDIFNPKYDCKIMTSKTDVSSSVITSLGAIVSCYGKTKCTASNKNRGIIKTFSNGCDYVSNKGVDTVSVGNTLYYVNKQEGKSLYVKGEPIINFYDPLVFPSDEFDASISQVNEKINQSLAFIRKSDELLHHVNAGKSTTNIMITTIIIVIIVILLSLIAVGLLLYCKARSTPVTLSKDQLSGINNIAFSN
Test: cell-based or functional assay

Compared with Ac-SLEQVNKINKKIDKIEESLKKIEESDKKSLEVNKKLEAAAKK-NH2 [Compound 47], B1 is lower in “IC50/nM, plaque reduction, RSV A long on HEp-2 cells (Table 2, Cell fusion inhibition activity)” value: over 8000 nM for the first, 5230 nM for the second.

Compared with IEQVNKKIEQSLKFIEKSDKLLENVNKGKCEAAAKK (not fully specified; also: modifications not known) [Positive polypeptide 4], LEQVNKKIEQSLKFIEKSDKLLENVNKGKCEAAAKK (not fully specified; also: modifications not known) [Positive polypeptide 5] is higher in “IC50/nM, plaque reduction, RSV A long on HEp-2 cells (Table 2, Cell fusion inhibition activity)” value: 190 nM for the first, over 300 nM for the second.

Compared with B2, Ac-ADAFRLEVNDASSKINESIEESLLSLEKLHNVNATA-NH2 [Compound 6] is higher in “IC50/nM, plaque reduction, RSV A long on HEp-2 cells (Table 2, Cell fusion inhibition activity)” value: 113 nM for the first, over 8000 nM for the second.

First: Ac-DEFDKKKIEEVNKKIEESLKKIEESDKKLEEVGSGSGK([Suc-Succinyl(4-O-cholesteryl)])-NH2 [Compound 15]
Second: Ac-FDAFIQEINVNEDQSLEQSDELLLELHLLHSLLH-NH2 [Compound 7]
The “IC50/nM, plaque reduction, RSV A long on HEp-2 cells (Table 2, Cell fusion inhibition activity)” value of the first is lower: 10.4 nM for the first, over 8000 nM for the second.

First: Ac-FAEFNQKINQVNEKIEESLEEIRKSDEELHNVNATT-NH2 [Compound 8]
Second: Ac-SLEQVNKKIEQSLESLKKSDKINQSLEEVNKSDELLEAAAKK-NH2 [Compound 49]
The “IC50/nM, plaque reduction, RSV A long on HEp-2 cells (Table 2, Cell fusion inhibition activity)” value of the first is lower: 3770 nM for the first, over 8000 nM for the second.

IEEVNKKIEESLKKIEESDKKLEEVNKKKEAAAKK (not fully specified; also: modifications not known) [Positive polypeptide 3] and Ac-SLEQVNKINEKINKISQSLKKIEESDKKSDEVNAGLEAAAKK-NH2 [Compound 48] cannot be ordered by “IC50/nM, plaque reduction, RSV A long on HEp-2 cells (Table 2, Cell fusion inhibition activity)” value: over 300 nM for the first, over 8000 nM for the second.

First: B3
Second: Ac-FDASLLKIEEEKKKIEELLKLHNESDKKLEEV-NH2 [Compound 4]
The “IC50/nM, plaque reduction, RSV A long on HEp-2 cells (Table 2, Cell fusion inhibition activity)” value of the first is lower: 12.4 nM for the first, over 8000 nM for the second.

Compared with SLEQVNKKIEQSLKFIEKSDKLLENGSGSGK (not fully specified; also: modifications not known) [Positive polypeptide 1], Ac-FEVNRRRIEQSLEKSLESLEEEEHSDKKLHNELH-NH2 [Compound 46] is higher in “IC50/nM, plaque reduction, RSV A long on HEp-2 cells (Table 2, Cell fusion inhibition activity)” value: 150 nM for the first, over 8000 nM for the second.

Ac-WDEFDKKIEEVNKKIEESLKKIEESDKKLEEVNKKL-NH2 [Compound 5] and Ac-IEQVNKKIEQSLKFIEKSDKLLENVNKGK-NH2 [Positive polypeptide 2] cannot be ordered by “IC50/nM, plaque reduction, RSV A long on HEp-2 cells (Table 2, Cell fusion inhibition activity)” value: 1120 nM for the first, over 300 nM for the second.

Going from Ac-WDEFDKKIEEVNKKIEESLKKIEESDKKLEEVNKKLEAAAKK(Succinyl(4-O-cholesteryl))-NH2 [Compound 9] to FDASISQVNEKINQSLAFIRKSDELLHNVNAGKSTTEAAAKK (not fully specified; also: modifications not known) [Positive polypeptide 7], the “IC50/nM, plaque reduction, RSV A long on HEp-2 cells (Table 2, Cell fusion inhibition activity)” value rises from 95.7 nM to over 300 nM.

Compared with VFPSDEFDASISQVNEKINQSLAAIRKSDELLHNV (not fully specified; also: modifications not known) [Positive polypeptide 6], Ac-DEFDKKKIEEVNKKIEESLKKIEESDKKLEEVGSGSGK([Suc-Succinyl(4-O-cholesteryl)])-NH2 [Compound 18] is lower in “IC50/nM, plaque reduction, RSV A long on HEp-2 cells (Table 2, Cell fusion inhibition activity)” value: over 300 nM for the first, 19.2 nM for the second.

Target: F protein of hMPV virus strain A2 (human metapneumovirus (hMPV) A2)
Test: cell-based or functional assay

Ac-DEFDKKKIEEVNKKIEESLKKIEESDKKLEEVGSGSGK([Suc-Succinyl(4-O-cholesteryl)])-NH2 [Compound 15] and B3 are within 1.5-fold of each other in “EC50 (nM), plaque reduction, hMPV A2 on Vero cells” value: 17.9 nM for the first, 14.6 nM for the second.

In the case of Ac-DEFDKKKIEEVNKKIEESLKKIEESDKKLEEVGSGSGK([Suc-Succinyl(4-O-cholesteryl)])-NH2 [Compound 18], the “EC50 (nM), plaque reduction, hMPV A2 on Vero cells” value is reported as 35.9 nM.

Target: F protein of hMPV virus strain B1 (human metapneumovirus (hMPV) B1)
Test: cell-based or functional assay

In the case of B3, the “EC50 (nM), plaque reduction, hMPV B1 on Vero cells” value is reported as 6.6 nM.

Target: F protein of hPIV Type 3 (hPIV3 C243) (human Parainfluenza Virus type 3 (hPIV3 …))
Test: cell-based or functional assay

Ac-DEFDKKKIEEVNKKIEESLKKIEESDKKLEEVGSGSGK([Suc-Succinyl(4-O-cholesteryl)])-NH2 [Compound 15] and B3 are within 1.5-fold of each other in “EC50 (nM), plaque reduction, hPIV3 C243 on LLC-MK2 cells” value: 20.7 nM for the first, 27.9 nM for the second.

Ac-DEFDKKKIEEVNKKIEESLKKIEESDKKLEEVGSGSGK([Suc-Succinyl(4-O-cholesteryl)])-NH2 [Compound 18] was tested, and the “EC50 (nM), plaque reduction, hPIV3 C243 on LLC-MK2 cells” value was 50.5 nM.
